Assay results from PMC6985235, “Endomembrane Protein Trafficking Regulated by a TvCyP2 Cyclophilin in the Protozoan Parasite, Trichomonas vaginalis” (Scientific Reports, 2020).

Experiments:
[1] = biological target: T1, GST-TvCyP2 (Trichomonas vaginalis, UniProt A2DLL4 1-186); experiment: pull-down; GST pull-down: 30 picomoles of GST or GST-fusion protein on 20 μl glutathione beads with 35 nM His-tagged protein in 1 ml TEN200 (1 mM EDTA, 200 mM NaCl, 20 mM Tris-HCl pH 7.4), 4 °C overnight; washes with 0.1% TritonX-100; anti-6xHis Western blot; in Fig. 3D also with DMSO or 5 μM cyclosporine A (binding greatly diminished); conditions: both partners purified
T1 construct: 186 aa; source: E. coli DH5α, purified (glutathione-conjugated beads)

[2] = biological target: T2, GST-TvCyP2(R75A) (Trichomonas vaginalis, UniProt A2DLL4 1-186, R75A); experiment: as above; conditions: both partners purified
T2 construct: source: E. coli DH5α, purified (glutathione-conjugated beads)

B1: His-TvCyP1 (enzyme)
chain: not shown
notes: TvCyP1 cyclophilin of Trichomonas vaginalis; ~19-kDa band; source: purified
B1: binds [1]; binds [2].
